Conditions: glycan lost

Substance | other: support of viral entry, other: percent increase over WT | other: viral replication
ACE2: N53Q | no change | –
ACE2: N546Q | 68% | no change
ACE2: N322Q | no change | –
ACE2: N432Q | no change | –
ACE2: N103Q | no change | –
ACE2: N690Q | no change | –
ACE2: N90Q | 60% | increases

— publication PMC7794309
